Data as given in publication PMC2971551.

Molecular target: truncated neck domain fragment of DC-SIGNR (neck lacking the N-terminal non-repeat region and the first half of the first repeat unit) (human)
Assay: SEC; gel filtration of the purified truncated fragment; profile superimposed on that of the previously described DC-SIGN extracellular domain

truncated neck domain fragment of DC-SIGNR (neck lacking the N-terminal non-repeat region and the first half of the first repeat unit) (domain or fragment)
stoichiometry N: 4
